Data from US20080317769A1, “Vaccine Composition Comprising Alpha-Galactosylceramide as an Adjuvant For Intranasal Administration” (priority 2005, published 2008).

Tested on: EG7 tumor cells
Assay: EG7 tumor challenge after intranasal immunization with OVA and αGalCer
Format: in vivo
Details: C57BL/6 mice
Method: To confirm whether αGalCer could be used as a nasal vaccine adjuvant inducing anticancer activity, C57BL/6 mice were immunized with 100 μg of OVA alone or together with αGalCer (0.125, 0.5, 2.0 μg) by the intranasal administration three times at one-week intervals. Two weeks after the final immunization, 3×10^6 EG7 tumor cells were subcutaneously inoculated in the left flank of the immunized mice. On the 14th day of the inoculation, the mice were sacrificed and the palpable tumors were weighed.

B1: OVA: model antigen given intranasally at 100 μg alone or together with αGalCer (protein, UniProt P01012 2-386, looked up)
Ovalbumin: GSIGAASMEFCFDVFKELKVHHANENIFYCPIAIMSALAMVYLGAKDSTRTQINKVVRFDKLPGFGDSIEAQCGTSVNVHSSLRDILNQITKPNDVYSFSLASRLYAEERYPILPEYLQCVKELYRGGLEPINFQTAADQARELINSWVESQTNGIIRNVLQPSSVDSQTAMVLVNAIVFKGLWEKAFKDEDTQAMPFRVTEQESKPVQMMYQIGLFRVASMASEKMKILELPFASGTMSMLVLLPDEVSGLEQLESIINFEKLTEWTSSNVMEERKIKVYLPRMKMEEKYNLTSVLMAMGITDVFSSSANLSGISSAESLKISQAVHAAHAEINEAGREVVGSAEAGVDAASVSEEFRADHPFLFCIKHIATNAVLFFGRCVSP
Q: Which results are given for B1?
A: mice with tumor masses (100 μg OVA alone intranasal, 3×10^6 EG7 cells s.c., day 14): all mice; tumor weight compared with vehicle alone (OVA alone through the nasal cavity, p<0.05): significantly heavy
